Measured values as given in article PMC9710867, “Molecular architecture of the Chikungunya virus replication complex” (Science Advances, 2022).

B1: ONNV nsP4, full length (amino acids 1904 to 2514) (enzyme)
chain: IFSSDTGQGHLQQKSVRQTTLPVNIVEEVHEEKCYPPKLDEIKEQLLLKRLQESASTANRSRYQSRKVENMKATIIHRLKEGCRLYLASDTPRVPSYRITYPAPVYSPSISIKLNNPETAVAVCNEFLARNYPTVASYQVTDEYDAYLDMVDGSESCLDRATFNPSKLRSYPKQHSYHAPTIRSAVPSPFQNTLQNVLAAATKRNCNVTQMRELPTMDSAVFNVECFKKYACNQEYWREFASSPIRVTTENLTMYVTKLKGPKAAALFAKTHNLLPLQEVPMDRFTMDMKRDVKVTPGTKHTEERPKVQVIQAAEPLATAYLCGIHRELVRRLNAVLLPNVHTLFDMSAEDFDAIISTHFKPGDAVLETDIASFDKSQDDSLALTAMMLLEDLGVDQPILDLIEAAFGEISSCHLPTGTRFKFGAMMKSGMFLTLFVNTLLNITIASRVLEERLTTSACAAFIGDDNIIHGVVSDALMAARCATWMNMEVKIIDAVVSEKAPYFCGGFILHDTVTGTSCRVADPLKRLFKLGKPLAAGDEQDEDRRRALADEVTRWQRTGLITELEKAVYSRYEVQGITAVITSMATFASSKENFKKLRGPVVTLYGGPK
notes: Contact residues in the text (D219, E392, D393, D402, E405; NTD 1 to 105) count on nsP4 itself; also called o'nyong-nyong virus nsP4; nsP4 RdRp
B2: CHIKV nsP2, full length (amino acids 536 to 1333) (enzyme)
chain: GIIETPRGAIKVTAQPTDHVVGEYLVLSPQTVLRSQKLSLIHALAEQVKTCTHSGRAGRYAVEAYDGRVLVPSGYAISPEDFQSLSESATMVYNEREFVNRKLHHIAMHGPALNTDEESYELVRAERTEHEYVYDVDQRRCCKKEEAAGLVLVGDLTNPPYHEFAYEGLKIRPACPYKIAVIGVFGVPGSGKSAIIKNLVTRQDLVTSGKKENCQEITTDVMRQRGLEISARTVDSLLLNGCNRPVDVLYVDEAFACHSGTLLALIALVRPRQKVVLCGDPKQCGFFNMMQMKVNYNHNICTQVYHKSISRRCTLPVTAIVSSLHYEGKMRTTNEYNKPIVVDTTGSTKPDPGDLVLTCFRGWVKQLQIDYRGHEVMTAAASQGLTRKGVYAVRQKVNENPLYASTSEHVNVLLTRTEGKLVWKTLSGDPWIKTLQNPPKGNFKATIKEWEVEHASIMAGICSHQMTFDTFQNKANVCWAKSLVPILETAGIKLNDRQWSQIIQAFKEDKAYSPEVALNEICTRMYGVDLDSGLFSKPLVSVYYADNHWDNRPGGKMFGFNPEAASILERKYPFTKGKWNINKQICVTTRRIEDFNPTTNIIPANRRLPHSLVAEHRPVKGERMEWLVNKINGHHVLLVSGCSLALPTKRVTWVAPLGVRGADYTYNLELGLPATLGRYDLVVINIHTPFRIHHYQQCVDHAMKLQMLGGDSLRLLKPGGSLLIRAYGYADRTSERVICVLGRKFRSSRALKPPCVTSNTEMFFLFSNFDNGRRNFTTHVMNNQLNAAFVGQATRAGC
notes: nonstructural protein 2 (nsP2) of chikungunya virus, full length, amino acids 536 to 1333 of the nonstructural polyprotein; Contact residues in the text (R56, R59, Y60, R101; nsP2h 1 to 465) count on nsP2 itself; The His6-SUMO tag is called cleavable; Only the helicase region is built in the cryo-EM model; also called nsP2 helicase-protease
B3: CHIKV nsP1 mutant (H37A; amino acids 1 to 535) with internal StrepII-3XFLAG (enzyme)
chain: MDPVYVDIDADSAFLKALQRAYPMFEVEPRQVTPNDAANARAFSHLAIKLIEQEIDPDSTILDIGSAPARRMMSDRKYHCVCPMRSAEDPERLANYARKLASAAGKVLDRNISGKIGDLQAVMAVPDTETPTFCLHTDVSCRQRADVAIYQDVYAVHAPTSLYHQAIKGVRLAYWVGFDTTPFMYNAMAGAYPSYSTNWADEQVLKAKNIGLCSTDLTEGRRGKLSIMRGKKLEPCDRVLFSVGSTLYPESRKLLKSWHLPSVFHLKGKLSFTCRCDTVVSCEGYVVKRITMSPGLYGKTTGYAVTHHADGFLMCKTTDTVDGERVSFSVCTYVPATICDQMTGILATEVTPEDAQKLLVGLNQRIVVNGRTQRNTNTMKNYMIPVVAQAFSKWAKECRKDMEDEKLLGVRERTLTCCCLWAFKKQKTHTVYKRPDTQSIQKVQAEFDSFVVPSLWSSGLSIPLRTRIKWLLSKVPKTDLTPYSGDAQEARDAEKEAEEEREAELTLEALPPLQAAQEDVQVEIDVEQLEDRAGA
notes: nonstructural protein 1 (nsP1) of chikungunya virus, amino acids 1 to 535 of the nonstructural polyprotein; also called nsP1 ring; nsP1 dodecameric ring; not shown: StrepII, internal (after residue 516), kept; copies: 12

Tests used:
Assay in all cases: cryo-EM structure; single-particle cryo-EM of the reconstituted nsP1 + 2 + 4 RC core mixed with T2 RNA and NTP in 1x buffer Z at 1:10:100 molar ratio; C1, 2.8 Å
[1] = target: B3; conditions: both partners purified
[2] = target: B1; conditions: both partners purified
[3] = target: the molecule itself

B1 was tested, and the “stoichiometry N” value [1] was 12 nsP1 per nsP4.

In the case of B2, the “stoichiometry N” value [2] is reported as 1 nsP2 per nsP4.

In the case of B3, the “stoichiometry N” value [3] is reported as 12.
